Measured values published in patent US20220281980A1 (Bristol-Myers Squibb, published 2022).

Legend:
[1] = target: T1, human MICA/B endogenously expressed on RPMI-8226 cells (human, UniProt Q29983 24-383); assay: flow cytometry, tumor cells with endogenous MICA/B
T1 construct: whole, on cells
T1 sequence (looked up): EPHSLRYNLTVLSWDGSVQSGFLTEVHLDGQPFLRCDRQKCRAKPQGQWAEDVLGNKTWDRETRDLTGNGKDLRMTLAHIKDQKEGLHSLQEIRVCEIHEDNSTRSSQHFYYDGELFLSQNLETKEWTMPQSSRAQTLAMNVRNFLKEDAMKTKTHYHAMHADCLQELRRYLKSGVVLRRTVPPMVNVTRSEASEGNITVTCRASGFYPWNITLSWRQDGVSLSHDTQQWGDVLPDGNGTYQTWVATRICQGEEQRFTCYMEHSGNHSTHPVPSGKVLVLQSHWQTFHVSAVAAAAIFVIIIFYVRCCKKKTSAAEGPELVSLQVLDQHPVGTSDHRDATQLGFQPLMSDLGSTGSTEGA
Procedure: Serial dilutions of MICA.36-IgG1-NF-G236A mAb were incubated with CHO cells transduced with human MICA/B common alleles or human tumor cell lines that endogenously express MICA/B. Cells were then washed twice, and cell bound antibodies were detected using a secondary anti-human antibody conjugated with a fluorophore. Flow cytometric analyses were performed using a FACSCantoII or FACS Fortessa X-20 flow cytometer. The geometric mean fluorescence intensity of MICA.36-IgG1-NF-G236A mAb bound to cells was determined using FlowJo analysis software. Dose-response curves were generated and EC50s calculated using Prism software.
MICA.36-IgG1-NF-G236A bound to endogenously expressed MICA/B on a variety of human tumor cell lines (FIG. 8B).

[2] = target: T2, human MICA/B endogenously expressed on 786-O cells (MICA allele *008) (human, UniProt Q29983 24-331); assay: flow cytometry, tumor cells with endogenous MICA/B (column Binding EC50)
T2 construct: it speaks of MICA/B, so MICB may be present as well; also called 786-0
T2 chain: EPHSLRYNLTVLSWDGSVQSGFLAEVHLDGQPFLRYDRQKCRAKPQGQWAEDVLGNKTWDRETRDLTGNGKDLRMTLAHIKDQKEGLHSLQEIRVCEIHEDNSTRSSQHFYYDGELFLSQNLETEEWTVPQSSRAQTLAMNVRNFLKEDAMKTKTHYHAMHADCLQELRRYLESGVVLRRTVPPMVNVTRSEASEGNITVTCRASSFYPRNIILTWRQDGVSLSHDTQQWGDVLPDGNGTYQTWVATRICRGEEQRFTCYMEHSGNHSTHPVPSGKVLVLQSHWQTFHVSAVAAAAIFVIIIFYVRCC

[3] = target: T3, human MICA/B endogenously expressed on HeLa cells (MICA allele *008) (human, UniProt Q29983 24-331); assay: as above
T3 construct: it speaks of MICA/B, so MICB may be present as well
T3 chain: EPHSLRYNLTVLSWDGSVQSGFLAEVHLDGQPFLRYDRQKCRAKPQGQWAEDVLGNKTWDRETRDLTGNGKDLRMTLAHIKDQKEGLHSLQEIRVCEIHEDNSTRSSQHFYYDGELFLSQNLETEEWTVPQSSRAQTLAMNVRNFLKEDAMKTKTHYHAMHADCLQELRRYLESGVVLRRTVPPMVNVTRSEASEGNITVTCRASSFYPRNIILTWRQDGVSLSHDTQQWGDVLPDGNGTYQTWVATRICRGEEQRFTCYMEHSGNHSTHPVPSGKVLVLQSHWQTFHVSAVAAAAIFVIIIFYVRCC

[4] = target: T2, human MICA/B endogenously expressed on …; assay: cell-based or functional assay
[5] = target: T3, human MICA/B endogenously expressed on …; assay: cell-based or functional assay
[6] = target: T4, human MICB expressed on transduced cells (human, UniProt Q29980 23-382); assay: cell-based or functional assay
T4 chain: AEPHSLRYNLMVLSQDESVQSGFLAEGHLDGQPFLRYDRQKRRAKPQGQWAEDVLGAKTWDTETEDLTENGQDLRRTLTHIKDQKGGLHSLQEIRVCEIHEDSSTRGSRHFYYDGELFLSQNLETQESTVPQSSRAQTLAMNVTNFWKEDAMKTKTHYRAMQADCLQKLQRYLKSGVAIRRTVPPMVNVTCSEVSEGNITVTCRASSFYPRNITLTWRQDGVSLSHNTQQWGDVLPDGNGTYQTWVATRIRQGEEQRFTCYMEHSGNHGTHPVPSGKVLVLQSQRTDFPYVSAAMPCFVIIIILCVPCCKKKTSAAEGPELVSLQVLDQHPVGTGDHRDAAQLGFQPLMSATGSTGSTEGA

[7] = target: T5, recombinant soluble human MICA*004 antigen (human, UniProt Q29983 24-307); assay: SPR (Biacore T200, 37 C), antibody captured on anti-human Fc, range over both antigen concentration sets
T5 construct: also called huIMICA-his allele *004
T5 chain: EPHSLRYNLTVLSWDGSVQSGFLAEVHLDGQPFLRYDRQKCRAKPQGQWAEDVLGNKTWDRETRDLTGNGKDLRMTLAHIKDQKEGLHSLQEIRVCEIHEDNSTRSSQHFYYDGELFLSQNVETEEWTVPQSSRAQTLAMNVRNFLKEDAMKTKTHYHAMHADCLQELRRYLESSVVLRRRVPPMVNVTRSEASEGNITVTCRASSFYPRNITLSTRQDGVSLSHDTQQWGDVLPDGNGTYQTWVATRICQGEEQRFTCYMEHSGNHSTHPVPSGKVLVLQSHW
Procedure: (§1) Anti-MICA/B antibodies were captured to α-human Fc surfaces. MICA allele antigens were injected at high and low nanomolar concentrations (500 nM and 50 nM, except indicated otherwise). The results for antibodies MICA.36 and MICA.38 (MICA.2 with a Ser inserted between residues 95 and 96 in the light chain) are shown in Table 2 below.

[8] = target: T6, recombinant soluble human MICA*008 antigen (human, UniProt Q29983 24-307); assay: as above
T6 construct: also called huIMICA-his allele *008; recombinant soluble MICA (allele 8)
T6 chain: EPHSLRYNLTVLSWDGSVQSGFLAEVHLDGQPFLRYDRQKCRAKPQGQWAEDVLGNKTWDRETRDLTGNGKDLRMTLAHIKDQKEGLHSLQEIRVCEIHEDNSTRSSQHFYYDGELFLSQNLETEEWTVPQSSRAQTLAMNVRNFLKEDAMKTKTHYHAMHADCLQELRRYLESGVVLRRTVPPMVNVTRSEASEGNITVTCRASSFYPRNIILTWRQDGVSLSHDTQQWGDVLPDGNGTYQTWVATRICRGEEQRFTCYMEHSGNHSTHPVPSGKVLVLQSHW
Procedure: as §1

[9] = target: T7, recombinant soluble human MICA*009 antigen (human, UniProt Q29983 24-307); assay: as above
T7 construct: also called huIMICA-his allele *009
T7 chain: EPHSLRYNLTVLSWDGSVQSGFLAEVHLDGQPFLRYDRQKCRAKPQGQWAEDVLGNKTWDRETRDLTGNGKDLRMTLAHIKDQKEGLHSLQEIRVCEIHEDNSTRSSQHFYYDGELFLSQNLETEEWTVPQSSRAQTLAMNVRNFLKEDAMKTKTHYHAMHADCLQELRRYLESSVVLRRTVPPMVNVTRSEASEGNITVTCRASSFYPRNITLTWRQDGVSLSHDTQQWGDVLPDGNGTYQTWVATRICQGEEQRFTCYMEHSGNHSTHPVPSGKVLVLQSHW
Procedure: as §1

[10] = target: T8, recombinant soluble human MICA*002 antigen (human, UniProt Q29983 24-307); assay: SPR (Biacore T200, 37 C), antibody captured on anti-human Fc, antigen 500 and 50 nM
T8 construct: also called huIMICA-his allele *002
T8 chain: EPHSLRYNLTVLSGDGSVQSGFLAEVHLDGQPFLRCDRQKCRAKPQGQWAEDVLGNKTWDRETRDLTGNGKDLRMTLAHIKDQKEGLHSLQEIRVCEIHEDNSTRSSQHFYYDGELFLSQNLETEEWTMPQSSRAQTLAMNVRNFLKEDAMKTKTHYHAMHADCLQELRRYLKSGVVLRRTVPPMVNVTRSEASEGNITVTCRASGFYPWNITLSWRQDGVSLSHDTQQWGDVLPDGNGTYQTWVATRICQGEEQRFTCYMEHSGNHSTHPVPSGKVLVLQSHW
Procedure: as §1

[11] = target: T5, recombinant soluble human MICA*004 …; assay: as above
Procedure: as §1

[12] = target: T6, recombinant soluble human MICA*008 …; assay: as above
Procedure: as §1

[13] = target: T7, recombinant soluble human MICA*009 …; assay: as above
Procedure: as §1

[14] = target: T5, recombinant soluble human MICA*004 …; assay: SPR (Biacore T200, 37 C), antibody captured on anti-human Fc, antigen 100 and 10 nM
Procedure: as §1

[15] = target: T6, recombinant soluble human MICA*008 …; assay: as above
Procedure: as §1

[16] = target: T7, recombinant soluble human MICA*009 …; assay: as above
Procedure: as §1

B1: MICA.36-IgG1-NF-G236A (antibody)
heavy: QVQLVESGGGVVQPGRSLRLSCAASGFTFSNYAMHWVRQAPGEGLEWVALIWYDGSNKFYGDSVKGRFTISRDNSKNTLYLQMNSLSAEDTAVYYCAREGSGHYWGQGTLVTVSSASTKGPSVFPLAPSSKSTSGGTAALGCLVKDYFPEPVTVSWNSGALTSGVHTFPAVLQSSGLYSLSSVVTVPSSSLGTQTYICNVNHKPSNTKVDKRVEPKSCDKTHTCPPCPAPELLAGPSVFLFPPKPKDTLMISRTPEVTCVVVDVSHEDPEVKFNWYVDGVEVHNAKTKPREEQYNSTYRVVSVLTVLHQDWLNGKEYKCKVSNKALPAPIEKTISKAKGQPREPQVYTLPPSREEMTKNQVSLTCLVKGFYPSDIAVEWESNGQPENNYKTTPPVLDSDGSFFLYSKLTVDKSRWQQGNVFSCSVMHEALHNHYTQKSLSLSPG
light: AIQLTQSPSSLSASVGDRVTITCRASQGISSALAWYQQKPGKVPKSLIYDASSLESGVPSRFSGSGSGTDFTLTISSLQPEDFATYYCQQFNSYPITFGQGTRLEIKRTVAAPSVFIFPPSDEQLKSGTASVVCLLNNFYPREAKVQWKVDNALQSGNSQESVTEQDSKDSTYSLSSTLTLSKADYEKHKVYACEVTHQGLSSPVTKSFNRGEC
modifications: non-fucosylated (expressed in FUT8-knock-out CHO cells)
notes: Human IgG1 with G236A (EU numbering); also called MICA.36 NF G236A; MICA.36-NF-G236A
[1]
  EC50: 3.9 nM
[2]
  EC50: 1.37 nM
[3]
  EC50: 1.76 nM
[4]
  Fold increase in surface MICA: 1.47 fold
  MICA retention EC50: 0.057 nM
  Reduction in sMICA EC50: 0.14 nM
[5]
  Fold increase in surface MICA: 1.43 fold
  MICA retention EC50: 0.032 nM
  Reduction in sMICA EC50: 0.1 nM
[6]
  OT-I CD8+ T cell proliferation (antigen cross-presentation) EC50: 1.6 nM
  antibody dependent cellular phagocytosis (ADCP) EC50: 10.7 nM

B2: MICA.36 hIgG1 (antibody)
heavy: not shown
light: AIQLTQSPSSLSASVGDRVTITCRASQGISSALAWYQQKPGKVPKSLIYDASSLESGVPSRFSGSGSGTDFTLTISSLQPEDFATYYCQQFNSYPITFGQGTRLEIKRTVAAPSVFIFPPSDEQLKSGTASVVCLLNNFYPREAKVQWKVDNALQSGNSQESVTEQDSKDSTYSLSSTLTLSKADYEKHKVYACEVTHQGLSSPVTKSFNRGEC
notes: Recombinant form of hybridoma 19G6 with wild type human IgG1 (236G), fucosylated; also called MICA.36hIgGl; MICA.36 IgG1
[7]
  Kd: 6.2 to 13.8 nM
[8]
  Kd: 4 to 5.1 nM
[9]
  Kd: 8.6 to 11.9 nM
[10]
  Kd: > 250 nM
  koff: 0.0161 s⁻¹
  kon: 28600 M⁻¹ s⁻¹
[11]
  koff: 0.000591 s⁻¹
  kon: 95200 M⁻¹ s⁻¹
[12]
  koff: 0.000565 s⁻¹
  kon: 140000 M⁻¹ s⁻¹
[13]
  koff: 0.000603 s⁻¹
  kon: 70100 M⁻¹ s⁻¹
[14]
  koff: 0.000637 s⁻¹
  kon: 46200 M⁻¹ s⁻¹
[15]
  koff: 0.000606 s⁻¹
  kon: 120000 M⁻¹ s⁻¹
[16]
  koff: 0.000642 s⁻¹
  kon: 54100 M⁻¹ s⁻¹
